Measurements reported in article PMC7859239, “Conserved strategies of RNA polymerase I hibernation and activation” (Nature Communications, 2021).

B1: S. pombe Pol I subunit A135 (natural protein, UniProt Q9P7X8 1-1174, looked up)
chain: MSFQTLERERTFKNPPKDGTSFPDLQKAVKPHVDSFNALTNAGLLNYAVKEIGEKCAFDSITQEEGGALKFGNKISFRVDEVQIAKPMLSSRERSSINRKVYPAEARERLTTYKSRLVLKFSWSVNGGPRQSEMREVGMIPIMVRSNRCHLEGLSPAELIAHKEESEEMGGYFIVNGIEKLIRMLILPKRNHPTAIIRPSFANRGTSYSQYGLSIRCVRPDQSSLTNTLHYLNNGVTMFRFHWRKNEYLIPSMMILKALLETSDKEIFEGIVGKDLGNTFLTDRVELMLRAYKSYGLYSQTETLQYLGSKFRVVLGVAEDLTDVEVGRFLLQKVVLVHLREAKDKFRLLLFMIRKLYALVAGECCADNPDSPQHQEILLGGFLYGQILKEKIEDWLNSIRAQINLDVRRSAPGVDFSDRKYLTRVFSKINNDIGTKLQYFLSTGNLVSNTGLDLQQATGYTVVAEKLNFYRFLSHFRMVHRGAFFAELKTTTVRKLLPEAWGFMCPVHTPDGSPCGLLNHLARKCEIVTHPSDVSQIPSLLLSLGVDPPSVVGHESGWGCVQLDGKIVGWCTYKLAKHVADVLRLMKIEYAVKLRNGTATEPAKVPLDLEIGYVPPSHNGQYPGLYLFSNPARMVRPVKHISTGELDMLGPFEQVYMDIACFPKEIVPKVSTHVEYSPTNVLSIVANMTPFSDFNQSPRNMYQCQMGKQTMGTPGTALRYRTDNKLYRLQTGQTPVVRPKLHNTYGLDHYPNGTNAVVAVISYTGYDMEDAMILNKSAHERGFGYGTVYKGESFDLSQKRRRGEPVVHHFGFAPGSTPRREWLQKLDADGLPFIGIKLEDGDPIVAYYDESTGQNFIETYHGTEPGFVDEVRLLGNDVGDSECQQIHVKLRITRSPIIGDKFSSRHGQKGICSQKWPTVDMPFTESGMQPDIIINPHAFPSRMTIGMFIESLAGKAGACHGLAQDSTPFIYSEQQTAADYFGEQLVKAGYNYHGNEPMYSGITGQEMKADIYIGVVYYQRLRHMVSDKFQVRTTGPIHNLTRQPVKGRKRAGGIRFGEMERDAVIGHGTSFLMQDRLMNCSDYAQSWVCRDCGSIISIMSTISMNGVGSASEVRCRSCAKPALGLEDTSDIWQDGSGKKFVGGTNTTLIALPSVFNYLTAELTAMNIKMMLEVK
notes: RNA polymerase I subunit A135, S. pombe; source: endogenous, S. pombe, purified as part of Pol I (Ni-NTA, MonoQ, MonoS)

Experiments:
[1] = biological target: T1, S. pombe Pol I subunit A190 (Schizosaccharomyces pombe (endogenous …, UniProt P15398 1-1689)); test: cryo-EM structure; dimer particles in the 'monomer' dataset of BS3-crosslinked Sp Pol I after SEC (5 mM HEPES pH 7.8, 1 mM MgCl2, 10 µM ZnCl2, 150 mM KCl, 5 mM DTT); C2 symmetry imposed; 4.5 Å; model by placing two monomers and rigid body fitting of subdomains; conditions: both partners purified
T1 construct: RNA polymerase I subunit A190, S. pombe; source: endogenous, S. pombe, purified as part of Pol I (Ni-NTA, MonoQ, MonoS)
T1 sequence (P15398 whole entry): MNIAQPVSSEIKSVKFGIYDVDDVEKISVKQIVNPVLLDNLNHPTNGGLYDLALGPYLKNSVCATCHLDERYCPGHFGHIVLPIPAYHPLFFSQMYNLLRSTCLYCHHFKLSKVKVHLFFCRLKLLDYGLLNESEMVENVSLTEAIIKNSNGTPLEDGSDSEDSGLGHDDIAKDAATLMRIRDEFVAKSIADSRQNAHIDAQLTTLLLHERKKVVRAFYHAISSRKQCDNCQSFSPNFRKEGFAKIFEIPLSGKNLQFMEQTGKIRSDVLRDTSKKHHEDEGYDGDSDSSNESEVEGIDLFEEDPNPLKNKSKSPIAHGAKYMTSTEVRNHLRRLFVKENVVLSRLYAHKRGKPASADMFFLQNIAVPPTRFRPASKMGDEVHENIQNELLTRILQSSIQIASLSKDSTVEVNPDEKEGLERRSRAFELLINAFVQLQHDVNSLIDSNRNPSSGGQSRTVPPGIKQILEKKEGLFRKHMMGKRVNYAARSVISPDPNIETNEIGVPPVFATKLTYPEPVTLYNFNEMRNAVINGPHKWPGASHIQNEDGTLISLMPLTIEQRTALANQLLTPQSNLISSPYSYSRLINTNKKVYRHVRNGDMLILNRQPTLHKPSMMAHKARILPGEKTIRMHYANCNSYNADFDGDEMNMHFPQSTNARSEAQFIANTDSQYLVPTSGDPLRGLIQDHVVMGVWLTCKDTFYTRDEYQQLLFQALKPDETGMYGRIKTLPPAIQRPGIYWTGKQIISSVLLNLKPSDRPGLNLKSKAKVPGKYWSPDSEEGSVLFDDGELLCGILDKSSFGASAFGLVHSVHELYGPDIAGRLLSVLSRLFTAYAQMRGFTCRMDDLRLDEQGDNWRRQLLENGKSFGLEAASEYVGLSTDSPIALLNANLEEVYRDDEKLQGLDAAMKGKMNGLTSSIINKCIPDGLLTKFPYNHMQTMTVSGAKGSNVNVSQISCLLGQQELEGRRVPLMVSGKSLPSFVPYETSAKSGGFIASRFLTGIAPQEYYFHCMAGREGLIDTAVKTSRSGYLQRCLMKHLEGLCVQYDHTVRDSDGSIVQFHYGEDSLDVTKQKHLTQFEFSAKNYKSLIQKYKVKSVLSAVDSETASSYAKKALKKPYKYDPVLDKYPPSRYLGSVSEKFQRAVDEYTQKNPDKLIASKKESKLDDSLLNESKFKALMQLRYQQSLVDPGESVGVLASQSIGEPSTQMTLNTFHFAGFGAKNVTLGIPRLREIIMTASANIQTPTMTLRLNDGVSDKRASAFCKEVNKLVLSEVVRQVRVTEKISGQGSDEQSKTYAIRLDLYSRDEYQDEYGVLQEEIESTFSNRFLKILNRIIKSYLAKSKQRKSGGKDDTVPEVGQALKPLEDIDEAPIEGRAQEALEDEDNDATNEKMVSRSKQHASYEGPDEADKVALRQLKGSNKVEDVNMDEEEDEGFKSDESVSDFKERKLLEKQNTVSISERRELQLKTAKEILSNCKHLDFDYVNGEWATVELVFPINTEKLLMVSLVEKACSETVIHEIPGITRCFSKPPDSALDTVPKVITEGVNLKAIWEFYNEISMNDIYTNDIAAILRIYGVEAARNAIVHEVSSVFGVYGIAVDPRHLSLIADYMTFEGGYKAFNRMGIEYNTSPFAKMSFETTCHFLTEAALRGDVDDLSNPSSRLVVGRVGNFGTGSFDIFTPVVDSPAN

[2] = biological target: B1; test: as above; conditions: both partners purified

binding result [1] | binding result [2] | Binder
binds | – | S. pombe common RNA polymerase subunit Rpb12 (natural protein, UniProt P48011 1-63, looked up, general (common) RNA polymerase subunit Rpb12, S. pombe; source: endogenous, S. pombe, purified as part of Pol I (Ni-NTA, MonoQ, MonoS)) MNHPTSTGGTAFNPPRPATMIYLCADCGARNTIQAKEVIRCRECGHRVMYKMRTKRMVQFEAR
binds | – | S. pombe Pol I subunit AC40 with C-terminal flag-his tag (natural protein, UniProt O94616 1-348, looked up, RNA polymerase I and III subunit AC40, S. pombe; source: endogenous, genomically tagged S. pombe strain, purified as part of Pol I (Ni-NTA, MonoQ, MonoS); not shown: 10xHis, C-terminal, kept) MAAVDRSRTEISVLSDRVTDVGSVDFPGYYFDEDNIWDLDKFKKNLKVSITSLDQETMVFEISGIDASIANAFRRILIAEIPTLAFEFVYIINNTSIIQDEVLSHRIGLVPISADPDMFKWFQHPLPGQEATHTDYDTVVFSLNKKCEFNKNAATDEKDPKRLYVNSEVYSGDLIWKPQGRQEERFADNPIRVVNPDIVVAKLRPGQEIDLEAHAILGIGQDHAKFSPVATASYRLLPTIHILSPIEGEDAVKFQKCFPKGVIELEEGPDGKKQARVADVRKDTVSRECLRHPEFADKVQLGRVRDHYLFSVESTGIMKPDVLFIKSIAVLKSKCLAVKSSLQNISSD
binds | – | B1
– | binds | S. pombe Pol I subunit A43 (natural protein, UniProt O43036 1-173, looked up, RNA polymerase I stalk subunit A43, S. pombe; Lacks the connector domain of the S. cerevisiae protein; also called stalk subunit A43; source: endogenous, S. pombe, purified as part of Pol I (Ni-NTA, MonoQ, MonoS)) MPDLSLYKQTVDLYLSIAPGHSRDPLNAIQEHMDSMILSKLPRINGIVLAYDNIRFLEKSAKVMYDSPFSFIWVRVDVLVFSPKKGDCLEGKINLVSPSHIGLLILGIFNASIPRKSIPKDWIFIEPDTTEEQGRWKTNDGNILEPGKDLEFVVDGIQREAGLTMVQGTLANS
